Assay results from patent US12478674 (dated 2025).
Several values for one entry are separate records, joined by “and”; a condition that tells them apart may be missing. Equal entries are not always repeated.

Tests used:
human CTLA-4 [1] = target: human CTLA-4 (human); assay: SPR, pH 6.0, 37C
human CTLA-4 [2] = target: human CTLA-4 (human); assay: SPR, pH 7.4, 37C
human CTLA-4 [3] = target: human CTLA-4 (human); assay: SPR, pH 7.4, 37C; remark: listed apart in the source
human CTLA-4 [4] = target: human CTLA-4 (human); assay: SPR, pH 6.0, 37C; remark: listed apart in the source
human CTLA-4 [5] = target: human CTLA-4 (human); assay: FACS, pH 7.3
human CTLA-4 [6] = target: human CTLA-4 (human); assay: SPR, pH 6.0, 37C; remark: listed apart in the source
human CTLA-4 [7] = target: human CTLA-4 (human); assay: FACS, pH 6.0
human CTLA-4 [8] = target: human CTLA-4 (human); assay: SPR, pH 7.4, 37C; remark: listed apart in the source
human CTLA-4 [9] = target: human CTLA-4 (human); assay: FACS, pH 6.7, bivalent
human CTLA-4 [10] = target: human CTLA-4 (human); assay: FACS, pH 6.2, bivalent
human CTLA-4 [11] = target: human CTLA-4 (human); assay: FACS, pH 7.2, bivalent

Sequence of human CTLA-4 (human) (chain, as listed by the source): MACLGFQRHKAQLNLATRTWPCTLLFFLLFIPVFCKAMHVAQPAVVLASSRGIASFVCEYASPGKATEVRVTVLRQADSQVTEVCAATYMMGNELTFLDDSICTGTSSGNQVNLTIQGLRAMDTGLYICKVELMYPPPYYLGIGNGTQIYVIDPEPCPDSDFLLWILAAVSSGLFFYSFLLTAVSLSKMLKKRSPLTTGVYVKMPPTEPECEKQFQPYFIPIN

Binder	EC50 (human CTLA-4 [9]) [nM]	EC50 (human CTLA-4 [10]) [nM]	EC50 (human CTLA-4 [11]) [nM]	other results
ipilimumab (ipi) Fab (antibody, V domains shown) VH: QVQLVESGGGVVQPGRSLRLSCAASGFTFSSYTMHWVRQAPGKGLEWVTFISYDGNNKYYADSVKGRFTISRDNSKNTLYLQMNSLRAEDTAIYYCARTGWLGPFDYWGQGTLVTVSS VL: not shown	–	–	–	Kd (human CTLA-4 [1]): 21 nM; Kd (human CTLA-4 [2]): 47 nM; Kd (human CTLA-4 [3]): 22 nM and 14 nM; Kd (human CTLA-4 [4]): 46 nM; EC50 (human CTLA-4 [5]): 5.4 nM; Kd (human CTLA-4 [6]): 21 nM; EC50 (human CTLA-4 [7]): 7.1 nM; Kd (human CTLA-4 [8]): 22 nM
ipi.105 IgG1 (antibody, V domains shown) VH: QVQLVESGGGVVQPGRSLRLSCAASGFTFSHYTMHWVRQAPGKGLEWVTFISYDGHNKYYADSVKGRFTISRDNSKNTLYLQMNSLRAEDTAIYYCARTGWLGPFDYWGQGTLVTVSS VL: EIVLTQSPGTLSLSPGERATLSCRASQEVGESELAWYQQKPGQAPRLLIYGAFSRATGIPDRFSGSGSGTDFTLTISRLEPEDFAVYYCQQYGSSPWTFGQGTKVEIKR	3.45	2.6	3.94	–
ipi.64 Fab (antibody, V domains shown) VH: QVQLVESGGGVVQPGRSLRLSCAASGFTFSHYTMHWVRQAPGKGLEWVTFISYDGNNKYYADSVKGRFTISRDNSKNTLYLQMNSLRAEDTAIYYCARTGWLGPFDYWGQGTLVTVSS VL: not shown	–	–	–	EC50 (human CTLA-4 [5]): 140 nM; EC50 (human CTLA-4 [7]): 3.3 nM
ipi.101 IgG1 (antibody, V domains shown) VH: QVQLVESGGGVVQPGRSLRLSCAASGFTFSHYTMHWVRQAPGKGLEWVTFISYDGHNKYYADSVKGRFTISRDNSKNTLYLQMNSLRAEDTAIYYCARTGWLGPFDYWGQGTLVTVSS VL: not shown	4.06	3.52	3.81	–
ipi.100 IgG1 (antibody, V domains shown) VH: QVQLVESGGGVVQPGRSLRLSCAASGFTFSHYTMHWVRQAPGKGLEWVTFISYDGNNKYYADSVKGRFTISRDNSKNTLYLQMNSLRAEDTAIYYCARTGWLGPFDYWGQGTLVTVSS VL: not shown	2.85	2.94	2.8	–
ipi.64 IgG1 (antibody, V domains shown) VH: QVQLVESGGGVVQPGRSLRLSCAASGFTFSHYTMHWVRQAPGKGLEWVTFISYDGNNKYYADSVKGRFTISRDNSKNTLYLQMNSLRAEDTAIYYCARTGWLGPFDYWGQGTLVTVSS VL: not shown	2.97	2.93	3.1	–

Second part, led by results:

EC50 (human CTLA-4 [9]) [nM]	EC50 (human CTLA-4 [10]) [nM]	EC50 (human CTLA-4 [11]) [nM]	Binder	other results
2.35	2.76	1.84	ipilimumab IgG1 (antibody, V domains shown) VH: QVQLVESGGGVVQPGRSLRLSCAASGFTFSSYTMHWVRQAPGKGLEWVTFISYDGNNKYYADSVKGRFTISRDNSKNTLYLQMNSLRAEDTAIYYCARTGWLGPFDYWGQGTLVTVSS VL: not shown	–
4.37	3.15	11.5	ipi.106 IgG1 (antibody, V domains shown) VH: QVQLVESGGGVVQPGRSLRLSCAASGFTFSHYTMHWVRQAPGKGLEWVTFISYDGHNKYYADSVKGRFTISRDNSKNTLYLQMNSLRAEDTAIYYCARHGWLGPFDYWGQGTLVTVSS VL: EIVLTQSPGTLSLSPGERATLSCRASQEVGESELAWYQQKPGQAPRLLIYGAFSRATGIPDRFSGSGSGTDFTLTISRLEPEDFAVYYCQQYGSSPWTFGQGTKVEIKR	–
